According to FireProtDB (doi:10.1021/bi990893b):

B1: Cytochrome b5, P00171 (parent)
chain: MAEESSKAVKYYTLEEIQKHNNSKSTWLILHYKVYDLTKFLEEHPGGEEVLREQAGGDATENFEDVGHSTDARELSKTFIIGELHPDDRSKITKPSESIITTIDSNPSWWTNWLIPAISALFVALIYHLYTSEN

Variants of: B1
Details: Bos taurus, pH 7, Thermal, Absorbance, Sodium phosphate 100 mM, structure 1CYO, whole UniProt chain shown; for ddG of mutation (higher = less stable): 67.2 °C

Row | Variant | ddG of mutation (higher = less stable) | Tm | change of melting temperature, mutant - wild type (higher = more stable) | unfolding enthalpy (van 't Hoff)
1 | V66E | 1.1 kcal/mol | 63.2 °C | -4 °C | 93.2 kcal/mol
2 | V66H | 1.63 kcal/mol | 61.3 °C | -5.9 °C | 88.2 kcal/mol
3 | V66K | 2.34 kcal/mol | 58.5 °C | -8.7 °C | 87 kcal/mol
4 | V66Y | 1.29 kcal/mol | 62.5 °C | -4.7 °C | 91.3 kcal/mol
